In patent publication US20250066503A1, “CELL INJURY INDUCING THERAPEUTIC DRUG FOR USE IN CANCER THERAPY” (CHUGAI SEIYAKU KABUSHIKI KAISHA, priority 2016, published 2025):
Numbering of substitutions follows the chain as printed.

B1: GCH025-G1dh/none-Hi-Kn010G3/L0204-k0 (antibody, V domains shown)
VH: QVQLVQSGAEVKKPGASVTVSCKASGYTFTDYEMHWIRQPPGEGLEWIGAIDGETPDTAYSQKFKGRVTLTADKSTSTAYMELSSLTSEDTAVYYCTRFYSYTYWGQGTLVTVSS
VL: DIVMTQSPLSLPVTPGEPASISCRSSQSPVHSNRNTYLHWYQQKPGQAPRLLIYKVSNRFRGVPDRFSGSGSGTDFTLKISRVEAEDVGVYYCGQGTQVPYTFGQGTKLEIKR
notes: one-arm
B2: GCH073-G1dh/none-Hi-Kn010G3/L0201-k0 (antibody, V domains shown)
VH: B1 VH with E54P, K65E
VL: B1 VL with S28P, R61S
notes: one-arm
B3: GCH029-G1dh/none-Hi-Kn010G3/L0000-k0 (antibody, V domains shown)
VH: B1 VH with T19K, T30E, E43Q, E54K
VL: B1 VL with P29L, R61S
notes: one-arm
B4: GCH042-G1dh/none-Hi-Kn010G3/L0000-k0 (antibody, V domains shown)
VH: B1 VH with T19K, E43Q, E54K, S88E
VL: B1 VL with P29L, R61S
notes: one-arm
B5: GCH057-G1dh/none-Hi-Kn010G3/L0222-k0 (antibody, V domains shown)
VH: B1 VH with Q62E, K65E
VL: B1 VL with L38I, H39Q, R61S, G94Y
notes: one-arm
B6: GCH056-G1dh/none-Hi-Kn010G3/L0000-k0 (antibody, V domains shown)
VH: B1 VH with K65E
VL: B1 VL with P29L, R61S
notes: one-arm
B7: GCH034-G1dh/none-Hi-Kn010G3/L0000-k0 (antibody, V domains shown)
VH: B1 VH with T19K, E43Q, E54K, K65E
VL: B1 VL with P29L, R61S
notes: one-arm
B8: GCH100-G1dh/none-Hi-Kn010G3/L0000-k0 (antibody, V domains shown)
VH: B1 VH with I37V, P40A, I48M, E54Y, Q62E
VL: B1 VL with P29L, R61S
notes: one-arm
B9: GCH040-G1dh/none-Hi-Kn010G3/L0000-k0 (antibody, V domains shown)
VH: B1 VH with T19K, E43Q, E54K, S85E
VL: B1 VL with P29L, R61S
notes: one-arm
B10: GCH100-G1dh/none-Hi-Kn010G3/L0011-k0 (antibody, V domains shown)
VH: B1 VH with I37V, P40A, I48M, E54Y, Q62E
VL: B1 VL with S28P, P29L, R61S
notes: one-arm
B11: GCH054-G1dh/none-Hi-Kn010G3/L0000-k0 (antibody, V domains shown)
VH: B1 VH with Q62E
VL: B1 VL with P29L, R61S
notes: one-arm
B12: GCH059-G1dh/none-Hi-Kn010G3/L0000-k0 (antibody, V domains shown)
VH: B1 VH with K65E, S88E
VL: B1 VL with P29L, R61S
notes: one-arm
B13: GCH032-G1dh/none-Hi-Kn010G3/L0000-k0 (antibody, V domains shown)
VH: B1 VH with T19K, E43Q, E54K, Q62E
VL: B1 VL with P29L, R61S
notes: one-arm
B14: GCH035-G1dh/none-Hi-Kn010G3/L0000-k0 (antibody, V domains shown)
VH: B1 VH with T19K, E43Q, E54K, T69E
VL: B1 VL with P29L, R61S
notes: one-arm
B15: GCH060-G1dh/none-Hi-Kn010G3/L0222-k0 (antibody, V domains shown)
VH: B1 VH with T30E, K65E, S88E
VL: B1 VL with L38I, H39Q, R61S, G94Y
notes: one-arm
B16: GCH056-G1dh/none-Hi-Kn010G3/L0201-k0 (antibody, V domains shown)
VH: B1 VH with K65E
VL: B1 VL with S28P, R61S
notes: one-arm
B17: GCH073-G1dh/none-Hi-Kn010G3/L0011-k0 (antibody, V domains shown)
VH: B1 VH with E54P, K65E
VL: B1 VL with S28P, P29L, R61S
notes: one-arm
B18: GCH045-G1dh/none-Hi-Kn010G3/L0000-k0 (antibody, V domains shown)
VH: B1 VH with T19K, E43Q, E54K, V93E
VL: B1 VL with P29L, R61S
notes: one-arm
B19: GCH054-G1dh/none-Hi-Kn010G3/L0222-k0 (antibody, V domains shown)
VH: B1 VH with Q62E
VL: B1 VL with L38I, H39Q, R61S, G94Y
notes: one-arm
B20: GCH054-G1dh/none-Hi-Kn010G3/L0203-k0 (antibody, V domains shown)
VH: B1 VH with Q62E
VL: B1 VL with L38I, R61S
notes: one-arm
B21: GCH066-G1dh/none-Hi-Kn010G3/L0000-k0 (antibody, V domains shown)
VH: B1 VH with E54W, Q62E
VL: B1 VL with P29L, R61S
notes: one-arm
B22: GCH094-G1dh/none-Hi-Kn010G3/L0201-k0 (antibody, V domains shown)
VH: B1 VH with I37V, P40A, I48M, Q62E
VL: B1 VL with S28P, R61S
notes: one-arm
B23: GCH064-G1dh/none-Hi-Kn010G3/L0000-k0 (antibody, V domains shown)
VH: B1 VH with T19K, E43Q, E54K, T87R
VL: B1 VL with P29L, R61S
notes: one-arm
B24: GCH068-G1dh/none-Hi-Kn010G3/L0000-k0 (antibody, V domains shown)
VH: B1 VH with E54K, Q62E
VL: B1 VL with P29L, R61S
notes: one-arm
B25: GCH067-G1dh/none-Hi-Kn010G3/L0000-k0 (antibody, V domains shown)
VH: B1 VH with E54Y, Q62E
VL: B1 VL with P29L, R61S
notes: one-arm
B26: GCH055-G1dh/none-Hi-Kn010G3/L0222-k0 (antibody, V domains shown)
VH: B1 VH with Q62D
VL: B1 VL with L38I, H39Q, R61S, G94Y
notes: one-arm
B27: GCH099-G1dh/none-Hi-Kn010G3/L0011-k0 (antibody, V domains shown)
VH: B1 VH with I37V, P40A, I48M, E54W, Q62E
VL: B1 VL with S28P, P29L, R61S
notes: one-arm
B28: GCH026-G1dh/none-Hi-Kn010G3/L0000-k0 (antibody, V domains shown)
VH: B1 VH with T19K, E43Q, Q62E, K63S
VL: B1 VL with P29L, R61S
notes: one-arm
B29: GCH055-G1dh/none-Hi-Kn010G3/L0000-k0 (antibody, V domains shown)
VH: B1 VH with Q62D
VL: B1 VL with P29L, R61S
notes: one-arm
B30: GCH054-G1dh/none-Hi-Kn010G3/L0201-k0 (antibody, V domains shown)
VH: B1 VH with Q62E
VL: B1 VL with S28P, R61S
notes: one-arm
B31: GCH098-G1dh/none-Hi-Kn010G3/L0011-k0 (antibody, V domains shown)
VH: B1 VH with I37V, P40A, I48M, E54P, Q62E
VL: B1 VL with S28P, P29L, R61S
notes: one-arm
B32: GCH055-G1dh/none-Hi-Kn010G3/L0212-k0 (antibody, V domains shown)
VH: B1 VH with Q62D
VL: B1 VL with S25P, R61S, G94Y
notes: one-arm
B33: GCH098-G1dh/none-Hi-Kn010G3/L0000-k0 (antibody, V domains shown)
VH: B1 VH with I37V, P40A, I48M, E54P, Q62E
VL: B1 VL with P29L, R61S
notes: one-arm
B34: GCH056-G1dh/none-Hi-Kn010G3/L0011-k0 (antibody, V domains shown)
VH: B1 VH with K65E
VL: B1 VL with S28P, P29L, R61S
notes: one-arm
B35: GCH098-G1dh/none-Hi-Kn010G3/L0201-k0 (antibody, V domains shown)
VH: B1 VH with I37V, P40A, I48M, E54P, Q62E
VL: B1 VL with S28P, R61S
notes: one-arm
B36: GCH073-G1dh/none-Hi-Kn010G3/L0000-k0 (antibody, V domains shown)
VH: B1 VH with E54P, K65E
VL: B1 VL with P29L, R61S
notes: one-arm
B37: GCH061-G1dh/none-Hi-Kn010G3/L0000-k0 (antibody, V domains shown)
VH: B1 VH with T19K, I37V, P40A, E43Q, E54K
VL: B1 VL with P29L, R61S
notes: one-arm
B38: GCH062-G1dh/none-Hi-Kn010G3/L0000-k0 (antibody, V domains shown)
VH: B1 VH with T19K, E43Q, I48M, E54K
VL: B1 VL with P29L, R61S
notes: one-arm
B39: GCH065-G1dh/none-Hi-Kn010G3/L0201-k0 (antibody, V domains shown)
VH: B1 VH with E54P, Q62E
VL: B1 VL with S28P, R61S
notes: one-arm
B40: GCH054-G1dh/none-Hi-Kn010G3/L0212-k0 (antibody, V domains shown)
VH: B1 VH with Q62E
VL: B1 VL with S25P, R61S, G94Y
notes: one-arm
B41: GCH099-G1dh/none-Hi-Kn010G3/L0201-k0 (antibody, V domains shown)
VH: B1 VH with I37V, P40A, I48M, E54W, Q62E
VL: B1 VL with S28P, R61S
notes: one-arm
B42: GCH057-G1dh/none-Hi-Kn010G3/L0000-k0 (antibody, V domains shown)
VH: B1 VH with Q62E, K65E
VL: B1 VL with P29L, R61S
notes: one-arm
B43: GCH053-G1dh/none-Hi-Kn010G3/L0000-k0 (antibody, V domains shown)
VH: B1 VH with S61E
VL: B1 VL with P29L, R61S
notes: one-arm
B44: GCH065-G1dh/none-Hi-Kn010G3/L0000-k0 (antibody, V domains shown)
VH: B1 VH with E54P, Q62E
VL: B1 VL with P29L, R61S
notes: one-arm
B45: GCH027-G1dh/none-Hi-Kn010G3/L0000-k0 (antibody, V domains shown)
VH: B1 VH with T19K, T28E, E43Q, E54K
VL: B1 VL with P29L, R61S
notes: one-arm
B46: GCH099-G1dh/none-Hi-Kn010G3/L0000-k0 (antibody, V domains shown)
VH: B1 VH with I37V, P40A, I48M, E54W, Q62E
VL: B1 VL with P29L, R61S
notes: one-arm
B47: GCH094-G1dh/none-Hi-Kn010G3/L0000-k0 (antibody, V domains shown)
VH: B1 VH with I37V, P40A, I48M, Q62E
VL: B1 VL with P29L, R61S
notes: one-arm
B48: GCH043-G1dh/none-Hi-Kn010G3/L0000-k0 (antibody, V domains shown)
VH: B1 VH with T19K, E43Q, E54K, T91E
VL: B1 VL with P29L, R61S
notes: one-arm
B49: GCH039-G1dh/none-Hi-Kn010G3/L0000-k0 (antibody, V domains shown)
VH: B1 VH with T19K, E43Q, E54K, S84E
VL: B1 VL with P29L, R61S
notes: one-arm

Biological target: T1, human GPC3 (human, UniProt P51654 25-563)
T1 construct: range 25-563; soluble analyte; also called soluble human GPC3; glypican 3
Assay: SPR

T1 sequence (P51654 25-563 limits assumed): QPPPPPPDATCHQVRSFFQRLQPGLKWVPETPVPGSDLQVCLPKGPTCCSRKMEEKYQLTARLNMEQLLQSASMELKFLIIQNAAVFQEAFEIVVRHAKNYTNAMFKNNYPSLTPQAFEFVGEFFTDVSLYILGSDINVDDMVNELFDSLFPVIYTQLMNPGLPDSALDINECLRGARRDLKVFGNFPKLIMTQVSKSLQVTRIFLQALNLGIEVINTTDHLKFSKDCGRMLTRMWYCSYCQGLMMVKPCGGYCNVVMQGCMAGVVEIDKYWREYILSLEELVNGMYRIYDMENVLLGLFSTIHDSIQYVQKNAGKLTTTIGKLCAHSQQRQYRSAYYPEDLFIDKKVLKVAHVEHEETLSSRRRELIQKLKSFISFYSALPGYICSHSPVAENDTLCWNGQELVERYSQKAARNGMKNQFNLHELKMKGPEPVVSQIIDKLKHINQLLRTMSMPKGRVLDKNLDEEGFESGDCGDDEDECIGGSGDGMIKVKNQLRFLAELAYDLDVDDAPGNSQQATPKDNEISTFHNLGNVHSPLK

Binder	Kd [nM]
B1	0.67
B2	0.035
B3	5.01
B4	4.89
B5	0.00185
B6	5.03
B7	5.09
B8	5.39
B9	4.8
B10	3.81
B11	5.3
B12	5.7
B13	5.74
B14	4.94
B15	0.000642
B16	1.16
B17	0.91
B18	4.63
B19	0.0315
B20	2.48
B21	4.29
B22	1.17
B23	4.14
B24	6.23
B25	5.24

Binder	Kd [nM]
B26	0.0039
B27	2.78
B28	5.17
B29	5.6
B30	1.08
B31	0.802
B32	0.614
B33	1.77
B34	4.31
B35	0.111
B36	2
B37	5.13
B38	3.73
B39	0.0774
B40	0.517
B41	1.29
B42	5.61
B43	4.05
B44	1.41
B45	3.83
B46	4.24
B47	5.89
B48	3.74
B49	4.95
